Source: paper PMC6908506, “Development of Foot-and-Mouth Disease Virus-Neutralizing Monoclonal Antibodies Derived From Plasmablasts of Infected Cattle and Their Germline Gene Usage” (Frontiers in Immunology, 2019)
Where a chain is given by its changes, count along the chain named.

B1: E40 (antibody)
VH: QVQLRESGPSLVKPSQTLSLTCTASGFSLSDKAVGWVRQAPGKALEWLGGIDTGGNKDYNPGLKSRLSITKDNSKSQMSLSMSSVTTEDSATYYCTTVHQKTNTAKTCRDGHVDVSSCYGSSGCPRSGCCACRRWGGTACSICSSRIVTYTYEFHVDVWGQGLLVTVSS
VL: QAVLTQPSSVSGSLGQRVSITCSGSSSNVGNGYVSWYQLIPGSAPRTLIYGDTSRASGVPDRFSGSRSGNTATLTISSLQAEDEADYFCASPEDSSTNALFGSGTTLTVL
B2: E43 (antibody)
VH: QVQLRESGPSLVKPSQTLSLTCTASGFSLRDKAVGWVRHTPGKALEWIGSIDSSGNTGYNPGLKSRLSITKDNSKSQVSLSVSAVLSEDSATYYCTVVHQETRQEEGCPDGYLYDSRCGPGGGCSGRLCTRTPSARANDFCCTGRRIRTSTYQHHIDAWGQGLLVTVSS
VL: B1 VL with I40T, S54T, F63V, S68F, P92A, S95G, S96N, T97S, L100V
B3: F4 (antibody, V domains shown)
VH: QVQLRESGPSLVKPSQTLSLTCTVSGFSLSSSGVVWVRQAPGKALEWVGSLSSGGLTSRNPALKSRISITKDNSKSQVSLSMSSVTPEDTATYYCAKCGGFYGSTCNGYGSSYDFWGRGLLVTVSS
VL: B1 VL with P92A, T97S, L100V
B4: F36 (antibody, V domains shown)
VH: QVQLRESGPSLVKPSQTLSLTCTVSGFSLSSYAVNWVRQAPGKALECLGSIGSGGSTGYNPALKSRLSITKDNSKSQVSLSVSSVTPEDTATYYCAKTTYSGDSRTFYGCYGSGSAYETYVDTWGQGLLVTVSS
VL: QAVLTQPSSVSGSLGQRVSITCSGSSNNIGNNGVVWYQQVPGSGLRTIIYGSTGRPSGVPDRFSGSKSGNTATLTISSLQAEDEADYFCGTADDSSSIAVFGSGTTLTVL
B5: F39 (antibody, V domains shown)
VH: QVQLRESGLSLVKPSQTLSLTCTVSGFSLSSYGVGWVRQAPGKALECLGGITSGGSADYNPALKSRLSITKDNSKSQVSLSLSSVTTEDTATYYCGKTSRFYGLVCNVDFYDDSEYVDAWGQGLLVTVSS
VL: QAVLTQPSSVSGSLGQRVSITCFGSSNDVGYGDYVSWFQQIPGSAPRMIIYGATRRPSGVPDRFSGSRSGNTATLTINSLQAEDEADYFCASPVGLGSGYPIFGSGTALTVL
B6: F45 (antibody, V domains shown)
VH: QVQLRESGPSLVKPSQILSLTCTVSGFSLSSNGAVWVRQAPGKTLEWIGGISVDGSVRYNPALNSRLSITKDNSKSQVSLSMTSATPEDTATYFCVRCFSGYSPNSVCSTADYVDAWGQRLLVTVSS
VL: QAVVNQPSSVSGSLGQRVFITCSGSSSNVGNGYVIWYQLIPGSGPTTLIYGDASRPSGVPDRFSGSRSGNTATLTIISLQAEDEEDYFCASAEDSSTNAVFGSGTTLTVL
B7: F56 (antibody, V domains shown)
VH: QVQLRESGPSLVKPSQTLSLTCTFSGFSLSSNGVLWVRQAPGKALEWLGGMCRSGSTNFNPALKSRLSITKNNSKSQVSLSVSSVTPEDTATYYCTTGFDLDCDWGYEDSTWGQGLLVTVSS
VL: QAVLTQPSSVSGSLGQRVSITCSGSSSNIGNDDVGWYQQIPGSGLRTIIYGNNSRPSGVPDRFSGSKSGNTATLTISSLQAEDEADYFCASADDNTSTAVFGSGTTLTVL
B8: F64 (antibody, V domains shown)
VH: QVQLRESGPSLVKPSQTLSLTCTVSGLSLNSIGVIWVRQAPGKALEWVGGINSGGSTYYKSALKSRLSITKDNSNSQVSLSLNSVTPEDTATYYCATYVGDFWGQGLLVTVSS
VL: QAVLTQPSSVSGSLGQRISITCSGSSSNIGRYNVGWYQQVPGSGLRTIIYGSSSRPSGVPDRFSGSKSGNTATLTISSLQAEDEADYFCAADDNSNSTAVFGSGTTLNVL
B9: F104 (antibody, V domains shown)
VH: QVQLRESGPSLVKPSQTLSLTCTVSGFSLSSYDVGWVRQAPGKGLECLGGIGNRGNTKYNPALKSRLSITKDNSKSQVSLSLSSVTSEDTATYYCTKSYGGNDVYDCYDSEYWGQGLLVTVSS
VL: QAVLTQPSSVSGSLGQRVSITCSGSSNNIGRYSVGWYQQVPGSGLRTIIYISSSRPSGVPDRFSGSKSGNTATLTISSLQAEDEADYFCATNDYSSDTTIFGSGTTLTVL
B10: F115 (antibody)
VH: QVQLRESGPSLVKPSQTLSLTCTASGFSLSDKTLGWVRQAPGKALEWLGSMDSGGNTGYNPDLKSRLSITKDNSRSQVSLSVSSVTTEDSATYYCTTTHQISRKEQRCPDGCRVNGWWGDSGCDDDTYCRYNYWGNCIRCTYVYTYEFHVDAWGQGLLVTVSS
VL: B1 VL with G30E, A44T, R46K, D61A, P92A, S95T, T97S, L100V
B11: E16 (antibody)
VH: QVQLRESGPSLVKPSQTLSLTCTVSGFSLSDKAVGWVRQAPGKALEWLGSIDGGEKTTYNPGLKSRLSITKDNSKNQVSLSVSSVSTEDSATYYCSIVYQKRERKCPDGYRPGTFCGSGINARDCRYDGCYASEHWQCCDTYTPGTSAYNFHIDAWGQGLLVTVSS
VL: B1 VL with N31K, L39R, G51D, A81V, P92A, D94G, T97S, L100V

Each binder was assayed against T1, FMDV O/Mya/98 146S antigen (Foot-and-mouth disease virus serotype …, UniProt G8JKC2, strain) (assay: immunostaining of cells or tissue). Conditions: one partner purified.
T1 construct: also called purified virus antigen; copies: + + +
B1: binds. B2: binds. B3: binds. B4: binds. B5: binds. B6: binds. B7: binds. B8: binds. B9: binds. B10: binds.

What follows are binders tested against T1, FMDV O/Mya/98 146S antigen (assay: ELISA). Conditions: both partners purified.
B11: binds.
